Test results as given in paper PMC4282169.

Assays:
[1] = substrate: O=[N+]([O-])c1ccc(O[C@@H]2O[C@H](CO)[C@@H](O[C@@H]3O[C@H](CO)[C@@H](O[C@@H]4O[C@H](CO)[C@@H](O[C@@H]5O[C@H](CO)[C@@H](O)[C@H](O)[C@H]5O)[C@H](O)[C@H]4O)[C@H](O)[C@H]3O)[C@H](O)[C@H]2O)c(Cl)c1; test: 2-chloro-4-nitrophenolate release, A405, continuous; assay type: biochemical, Bacteroides ovatus; conditions: 37 °C, 50 mM buffer at or near pH optimum (6.0-7.0)
[2] = substrate: O=[N+]([O-])c1ccc(O[C@@H]2O[C@H](CO)[C@@H](O[C@@H]3O[C@H](CO[C@H]4OC[C@@H](O)[C@H](O)[C@H]4O)[C@@H](O[C@@H]4O[C@H](CO[C@H]5OC[C@@H](O)[C@H](O)[C@H]5O)[C@@H](O[C@@H]5O[C@H](CO[C@H]6OC[C@@H](O)[C@H](O)[C@H]6O)[C@@H](O)[C@H](O)[C@H]5O)[C@H](O)[C@H]4O)[C@H](O)[C@H]3O)[C@H](O)[C@H]2O)c(Cl)c1; test: as above; assay type: biochemical, Bacteroides ovatus; conditions: 37 °C, 50 mM buffer at or near pH optimum (6.0-7.0)
[3] = substrate: O=[N+]([O-])c1ccc(O[C@@H]2OC[C@@H](O)[C@H](O)[C@H]2O)cc1; test: 4-nitrophenolate release, A410; assay type: biochemical, Bacteroides ovatus; conditions: 37 °C, 50 mM buffer at or near pH optimum (6.0-7.0)
[4] = substrate: O=[N+]([O-])c1ccc(O[C@@H]2O[C@@H](CO)[C@H](O)[C@H]2O)cc1; test: 4-nitrophenolate release, A410; assay type: biochemical, Bacteroides ovatus; conditions: 37 °C, 50 mM buffer at or near pH optimum (6.0-7.0)
[5] = substrate: O=[N+]([O-])c1ccc(O[C@H]2OC[C@@H](O)[C@H](O)[C@H]2O)cc1; test: 4-nitrophenolate release, A410; assay type: biochemical, Bacteroides ovatus; conditions: 37 °C, 50 mM buffer at or near pH optimum (6.0-7.0)
HPLC = substrate: OC[C@H]1O[C@@H](O[C@H]2[C@@H](OC[C@H]3O[C@@H](O[C@H]4[C@H](O)[C@@H](O)[C@H](O[C@H]5[C@H](O)[C@@H](O)C(O)O[C@@H]5CO)O[C@@H]4CO[C@H]4OC[C@@H](O)[C@H](O)[C@H]4O[C@@H]4O[C@H](CO)[C@H](O)[C@H](O)[C@H]4O)[C@H](O)[C@@H](O)[C@@H]3O[C@@H]3O[C@H](CO[C@H]4OC[C@@H](O)[C@H](O)[C@H]4O)[C@@H](O)[C@H](O)[C@H]3O)OC[C@@H](O)[C@@H]2O)[C@H](O)[C@@H](O)[C@H]1O; test: HPLC; assay type: biochemical, Bacteroides ovatus; conditions: 37 °C, 50 mM buffer at or near pH optimum (6.0-7.0)
purified protein [6] = substrate: O=[N+]([O-])c1ccc(O[C@H]2O[C@H](CO)[C@@H](O)[C@H](O)[C@H]2O)cc1; test: purified protein; conditions: 37 °C, 50 mM buffer at or near pH optimum (6.0-7.0)
purified protein [7] = substrate: O=[N+]([O-])c1ccc(O[C@@H]2O[C@H](CO)[C@H](O)[C@H](O)[C@H]2O)cc1; test: purified protein; conditions: 37 °C, 50 mM buffer at or near pH optimum (6.0-7.0)
purified protein [8] = substrate: O=[N+]([O-])c1ccc(O[C@@H]2O[C@H](CO)[C@@H](O)[C@H](O)[C@H]2O)cc1; test: purified protein; conditions: 37 °C, 50 mM buffer at or near pH optimum (6.0-7.0)
[9] = substrate: O=[N+]([O-])c1ccc(O[C@@H]2O[C@@H](CO)[C@H](O)[C@H]2O)cc1; test: continuous 4-nitrophenolate release; assay type: biochemical, Bacteroides ovatus; conditions: 37 °C, pH 7.0

B1: BoGH5A (Bacteroides ovatus ATCC 8483) (protein)
chain: SNSDEKGGSLEVAQEYRNLEFDARGSRQTIQIDGPAEWHISTSESWCKSSHTIGEGKQYVNITVEANDTQKERTATVTVSASGAPDIIINVKQSLYSVPAYDEYIAPDNTGMRDLTSMQLSALMKAGVNVGNTFEAVIVGNDGSLSGDETCWGNPTPNKVLFEGIKAAGFDVVRIPVAYSHQFEDAATYKIKSAWMDKVEAAVKAALDAGLYVIINIHWEGGWLNHPVDANKEALDERLEAMWKQIALRFRDYDDRLLFAGTNEVNNDDANGAQPTEENYRVQNGFNQVFVNTVRATGGRNHYRHLIVQAYNTDVAKAVAHFTMPLDIVQNRIFLECHYYDPYDFTIMPNDENFKSQWGAAFAGGDVSATGQEGDIEATLSSLNVFINNNVPVIIGEYGPTLRDQLTGEALENHLKSRNDYIEYVVKTCVKNKLVPLYWDAGYTEKLFDRTTGQPHNAASIAAIMKGLN
In the case of B1, the Km [1] is reported as 3590 ± 1270 µM, the kcat [1] is reported as 0.12 ± 0.025 s⁻¹ and the kcat/Km [1] is reported as 34 M⁻¹ s⁻¹. For the same protein, the Km [2] was 36 ± 2.7 µM, the kcat [2] was 10.5 ± 0.14 s⁻¹ and the kcat/Km [2] was 292000 M⁻¹ s⁻¹.

B2: BoGH43A (Bacteroides ovatus ATCC 8483) (protein)
chain: QGYSNPVIPGFHPDPSVCKAGDDYYLVNSSFQYFPGVPLFHSKDLVHWEQIGNCLTRPSQLDLTNANSGSGIFAPTIRYNDGVFYMITTNVSGKGNFLVHTTDPRSEWSEPVWLEQGGIDPSLYFEDGKCFMVSNPDGYINLCEIDPMTGKQLSSSKRIWNGTGGRYAEGPHIYKKDGWYYLLISEGGTELGHKVTIARSRYIDGPYQGNPANPILTHANESGQSSPIQGTGHADLVEGTDGSWWMVCLAYRIMPGTHHTLGRETYLAPVRWDKDAWPVVNSNGTISLKMDVPTLPQQEMKGRPERIDFKEGKLSPEWIHLQNPEAKNYIFTKDGKLRLIATPVTLSDWKSPTFVALRQEHFDMEASAPVVLQKAGVNDEAGISVFMEFHSHYDLFVRQDKDRKRSVGLRYKLGEITHYAKEVSLPTDGEVELVVKSDINYYYFGYKVNGIYHDLGKMNTRYLSTETAGGFTGVVLGLYITSASKDSKAYADFEYFKYKGKPGENK
In the case of B2, the Km [3] is reported as 6580 ± 210 µM, the kcat [3] is reported as 0.26 ± 0.005 s⁻¹ and the kcat/Km [3] is reported as 39 M⁻¹ s⁻¹. For the same protein, the Km [4] was 710 ± 30 µM, the kcat [4] was 0.057 ± 0.001 s⁻¹ and the kcat/Km [4] was 81 M⁻¹ s⁻¹.

B3: BoGH31A (Bacteroides ovatus ATCC 8483) (protein)
chain: SNKVYEKTGDSVIVKVQHKETGGPRLVRLQVMGDKLIHVSATADSKFADPQSLIVVPQKKQTSFAVVQNGDTITVSTEEVKASVLASTGEVWFTDKNGELILQENKGGGKTFTPIEVEGTKGYTVCQVFESPEDEAFYGLGQHQADEFNYKGKNEELFQYNTKVSVPFVVSNKNYGILLDSYSFCRFGNPNDYSQLNRIFKLYDKTGQEGALTGTYVPKKGETLVRREDSIYFENLKTIENLPKKLPLMGAKVTYEGEIEPAQTGEFKFILYYAGYVKVYLNNEPVVPERWRTAWNPNSYKFAAHLEAGKRVPLKIEWQPDGGQSYCGLRALTPVNPEEQGKQSWWSEMTKQLDYYFMAGENMDDVISGYRSLTGKSPVMPKWAMGFWQSREKYNTQEEMLGALKGFRDRKIPLDNIVLDWNHWPENAWGSHEFDKARFPDPKAMVDSIHAMHARMMISVWPKFYVTTEHFKEFDENGWMYQQSVKDSLKDWVGPGYHYGFYDAYDPDARKLFWKQMYEHYYPLGIDAWWMDASEPNVRDCTDLEYRKALCGPTALGSSTEFFNAYALMNAEAIYDGQRGVDNNKRVFLLTRSGFAGLQRYSTATWSGDIGTRWEDMKAQISAGLNFAMSGIPYWTMDIGGFCVENRYVAGQKQWNATKTENADYKEWRELNTRWYQFGAFVPLYRAHGQYPFREIWEIAPEGHPAYQSVVYYTKLRYNMMPYIYSLAGMTWFDDYTIMRPLVMDFTADAEVNDIGDQFMFGPSFMVSPVYRYGDRSREIYFPQAEGWYDFYSGKFQAGGERKVIEAPYERIPLYVRAGAIIPFGDDIQYTDEKPAEHIRLYIYQGADGEFTLYEDEGVNYNYEQGMYAMIPMKYDEATKTLVIGERQGEFPGMLKERTFTVVTVNKEKAQPFDLNAKGVTVKYNGSEQTLKL
With B3 the Km [5] was 7700 ± 273 µM, the kcat [5] was 1.6 ± 0.031 s⁻¹ and the kcat/Km [5] was 210 M⁻¹ s⁻¹. The Km (HPLC) was 378 ± 75 µM, the kcat (HPLC) was 31 ± 1.9 s⁻¹ and the kcat/Km (HPLC) was 82000 M⁻¹ s⁻¹. The Km (purified protein [6]) was 31800 ± 5100 µM, the kcat (purified protein [6]) was 0.071 s⁻¹ and the kcat/Km (purified protein [6]) was 2.2 M⁻¹ s⁻¹.

B4: BoGH2A (Bacteroides ovatus ATCC 8483) (protein)
chain: LALGGCLMLLGACSSSSLVSPRERSDFNADWRFHLGDGLQAAQPGFADNDWRVLDLPHDWAIEGDFSQENPSGTGGGALPGGVGWYRKTFSVDKADAGKIFRIEFDGVYMNSEVFINGVSLGVRPYGYISFSYDLTPYLKWDEPNVLAVRVDNAEQPNSRWYSGCGIYRNVWLSKTGPIHVGGWGTYVTTSSVDEKQAVLNLATTLVNESDTNENVTVCSSLQDAEGREVAETRSSGEAEAGKEVVFTQQLTVKQPQLWDIDTPYLYTLVTKVMRNEECMDRYTTPVGIRTFSLDARKGFTLNGRQTKINGVCMHHDLGCLGAAVNTRAIERHLQILKEMGCNGIRCSHNPPAPELLDLCDRMGFIVMDEAFDMWRKKKTAHDYARYFNEWHERDLNDFILRDRNHPSVFMWSIGNEVLEQWSDAKADTLSLEEANLILNFGHSSEMLAKEGEESVNSLLTKKLVSFVKGLDPTRPVTAGCNEPNSGNHLFRSGVLDVIGYNYHNKDIPNVPANFPDKPFIITESNSALMTRGYYRMPSDRMFIWPKRWDKSFADSTFACSSYENCHVPWGNTHEESLKLVRDNDFISGQYVWTGFDYIGEPTPYGWPARSSYFGIVDLAGFPKDVYYLYQSEWTDKQVLHLFPHWNWTPGQEIDMWCYYNQADEVELFVNGKSQGVKRKDLDNLHVAWRVKFEPGTVKVIARESGKVVAEKEICTAGKPAEIRLTPDRSILTADGKDLCFVTVEVLDEKGNLCPDADNLVNFTVQGNGFIAGVDNGNPVSMERFKDEKRKAFYGKCLVVIQNDGKPGKAKLTATSEGLRQAVLKISAEEL
With B4 the Km (purified protein [7]) was 87 ± 7.4 µM, the kcat (purified protein [7]) was 4 s⁻¹ and the kcat/Km (purified protein [7]) was 46000 M⁻¹ s⁻¹.

B5: BoGH3B (Bacteroides ovatus ATCC 8483) (protein)
chain: QTASPVIPTDPAIETHIREWLQKMTLEQKIGQMCEITIDVVSDLETSRKKGFCLSEAMLDTVIGKYKVGSLLNVPLGVAQKKEKWAEAIKQIQEKSMKEIGIPCIYGVDQIHGTTYTLDGTMFPQGINMGATFNRELTRRGAKISAYETKAGCIPWTFAPVVDLGRDPRWARMWENYGEDCYVNAEMGVSAVKGFQGEDPNRIGEYNVAACMKHYMGYGVPVSGKDRTPSSISRSDMREKHFAPFLAAVRQGALSVMVNSGVDNGLPFHANRELLTEWLKEDLNWDGLIVTDWADINNLCTRDHIAATKKEAVKIVINAGIDMSMVPYEVSFCDYLKELVEEGEVSMERIDDAVARVLRLKYRLGLFDHPYWDIKKYDKFGSKEFAAVALQAAEESEVLLKNDGNILPIAKGKKILLTGPNANSMRCLNGGWSYSWQGHVADEYAQAYHTIYEALCEKYGKENIIYEPGVTYASYKNDNWWEENKPETEKPVAAAAQADIIITCIGENSYCETPGNLTDLTLSENQRNLVKALAATGKPIVLVLNQGRPRIINDIVPLAKAVVNIMLPSNYGGDALANLLAGDANFSGKMPFTYPRLINALATYDYKPCENMGQMGGNYNYDSVMDIQWPFGFGLSYTNYKYSNLKVNKPTFNADDELIFTVDVTNTGKVAGKESVLLFSKDLVASSTPDNIRLRNFEKVSLEPGETKTVTLKLKGSDLAFVGYDGKWRLEKGDFKIKCGDQWMDIVCDQTKVWNTPNKNTLHK
With B5 the Km (purified protein [8]) was 155 ± 39 µM, the kcat (purified protein [8]) was 1.74 s⁻¹ and the kcat/Km (purified protein [8]) was 11200 M⁻¹ s⁻¹.

B6: BoGH43B (Bacteroides ovatus ATCC 8483) (protein)
chain: QKTFRNPIITGMNPDPSICRVGDDFYLVTSTFEYFPGLPVYHSKDLVHWKLIGHALSRPENNPLMGCNASTGGQYAPTLRYHDGTFYVIGTNYGGKGSQGVFYVTAKNPAGPWSDPVWVGNWYVDPSIEFIDGKMYFLSPDNQGSFLLGVMDPETGTFVEALRKVASGLGGSSPEGPHFYKIGDYYYIMSAEGGTGYEHREVIQRSKSPWGPYEPSPVNPVLSNMNCPDHPFQAIGHADLVQLKDGSWWAVCLGIRPVNGKYQHLGRETFLAPVTWDADGWPKVGKDGVVQETYLFPNLPSHVWMEQPVRDDFDQETLGLDWTFIRNPAHSFWSLTEKPGSLRLKGTAINFTTNDSPSFIGRRQAAFNLTASAKVNFIPKVENEEAGLVVRADDKNHYDLLITERNGQRVAMIRKTLKDKVVDTTCKELPATGEVILSITATETTYTFEIKAAHVSAILGTASTRDVSNEVVGGFTGVFIGMYASGNGQANTNPADFDWFDFRCLD
In the case of B6, the Km [9] is reported as 6600 ± 2300 µM, the kcat [9] is reported as 0.0005 ± 8.1e-05 s⁻¹ and the kcat/Km [9] is reported as 0.076 M⁻¹ s⁻¹.
